Results taken from patent US6258556.

Molecular target: human µ opiate receptor (human)

(D-ala^2, N-methyl-phe^4, glyol^5) enkephalin (peptide)
adenyl cyclase activity (cAMP radioimmunoassay) in forskolin-stimulated COS cells: > 30%
